Test results: article doi:10.1101/2025.07.03.663104

Molecular target: OsPR5-His (rice (Oryza sativa)) (UniProt P31110)
Assay: BLI

Sequence of OsPR5-His (rice (Oryza sativa)) (P31110 27-177): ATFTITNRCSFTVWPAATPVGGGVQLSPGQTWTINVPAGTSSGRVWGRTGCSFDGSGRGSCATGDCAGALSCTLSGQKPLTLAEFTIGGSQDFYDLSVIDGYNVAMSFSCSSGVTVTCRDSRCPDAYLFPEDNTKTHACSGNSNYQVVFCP

Row | Substance | Kd [nM]
1 | GBP-His (natural protein) | 0.745
2 | ThBP15k (recombinant, no tag named) (natural protein) | 25.9
